Results published in article PMC2172734.

Molecular target: Abi1, endogenous in mouse fibroblasts (mouse (endogenous in MEFs)) (UniProt Q8CBW3)
Test: co-IP

Sequence of UniProt Q8CBW3 (Q8CBW3 whole entry): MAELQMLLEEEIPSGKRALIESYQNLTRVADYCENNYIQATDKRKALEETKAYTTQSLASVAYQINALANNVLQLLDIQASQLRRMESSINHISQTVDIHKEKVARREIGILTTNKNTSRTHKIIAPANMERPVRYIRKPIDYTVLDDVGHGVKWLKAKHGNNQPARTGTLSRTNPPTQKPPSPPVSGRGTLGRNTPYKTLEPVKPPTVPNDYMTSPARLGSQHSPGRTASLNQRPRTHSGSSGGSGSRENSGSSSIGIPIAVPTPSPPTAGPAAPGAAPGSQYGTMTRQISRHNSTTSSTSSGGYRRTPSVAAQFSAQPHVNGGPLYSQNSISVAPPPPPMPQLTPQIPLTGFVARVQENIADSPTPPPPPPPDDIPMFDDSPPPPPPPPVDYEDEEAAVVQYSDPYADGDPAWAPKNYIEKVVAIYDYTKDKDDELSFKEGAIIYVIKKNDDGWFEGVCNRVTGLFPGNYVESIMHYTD

percent of total p85 associated with Abi1 immunoprecipitates: 1%
Substance: p85 (regulatory subunit of class I PI3K), endogenous in mouse fibroblasts (from UniProt P26450 1-724) (natural protein)
